Laboratory results published in paper PMC9897663.

Legend:
Experiment in all cases: purified protein
Settings in all cases: potassium phosphate pH 7.5, 22-23 °C
purified protein [1] = substrate: O=C(Nc1ccn([C@H]2C[C@H](O)[C@@H](CO)O2)c(=O)n1)c1ccccc1
purified protein [2] = substrate: Nc1ccn([C@H]2C[C@H](O)[C@@H](CO)O2)c(=O)n1; assay type: biochemical, uncultured bacterium
purified protein [3] = substrate: O=C(Nc1ccn([C@H]2C[C@H](O)[C@@H](CO)O2)c(=O)n1)c1ccccc1; assay type: biochemical, uncultured bacterium
[4] = substrate not given, inferred from the stated about twofold rise over wild type

B1: CDA_F14 (uncultured bacterium; G81L) (protein)
chain: MNKEDLLKKAFEAMENAYAPYSNYHVGACALMKDGTTFLGANIENASYGATNCGERSAIFAAYSNGYRADDIEALAIVTDLDRVGAPCGICRQVLSELLNDNTPIYLSNGKETLEKTIDELLPMRFTKEDLL
Km (purified protein [1]): (8.66 ± 3.8) × 10^-4 M | kcat (purified protein [1]): (7.89 ± 3.08) × 10^-1 s^-1

B2: CDA_F14 (uncultured bacterium; G81L/G85I) (protein)
chain: MNKEDLLKKAFEAMENAYAPYSNYHVGACALMKDGTTFLGANIENASYGATNCGERSAIFAAYSNGYRADDIEALAIVTDLDRVIAPCGICRQVLSELLNDNTPIYLSNGKETLEKTIDELLPMRFTKEDLL
Km (purified protein [1]): (4.93 ± 1.3) × 10^-4 M | kcat (purified protein [1]): (4.14 ± 0.88) × 10^-2 s^-1

B3: CDA_F14 (uncultured bacterium) (protein)
chain: MNKEDLLKKAFEAMENAYAPYSNYHVGACALMKDGTTFLGANIENASYGATNCGERSAIFAAYSNGYRADDIEALAIVTDGDRVGAPCGICRQVLSELLNDNTPIYLSNGKETLEKTIDELLPMRFTKEDLL
notes: recombinant in E. coli HMS174 delta-pyrF delta-cdd, purified; homotetramer, one Zn per subunit; active site formed by three subunits
Km (purified protein [2]): (1.95 ± 0.36) × 10^−4 M | kcat (purified protein [2]): (24.4 ± 1.71) × 10^−1 s^−1 | Km (purified protein [3]): (1.15 ± 0.16) × 10^−4 M | kcat (purified protein [3]): (5.04 ± 0.4) × 10^−1 s^−1

B4: CDA_F14 (uncultured bacterium; F126W) (protein)
chain: MNKEDLLKKAFEAMENAYAPYSNYHVGACALMKDGTTFLGANIENASYGATNCGERSAIFAAYSNGYRADDIEALAIVTDGDRVGAPCGICRQVLSELLNDNTPIYLSNGKETLEKTIDELLPMRWTKEDLL
notes: as for B3
Km (purified protein [3]; [4]): (2.11 ± 0.38) × 10^−4 M

B5: CDA_F14 (uncultured bacterium; F126A) (protein)
chain: MNKEDLLKKAFEAMENAYAPYSNYHVGACALMKDGTTFLGANIENASYGATNCGERSAIFAAYSNGYRADDIEALAIVTDGDRVGAPCGICRQVLSELLNDNTPIYLSNGKETLEKTIDELLPMRATKEDLL
Km (purified protein [1]; [4]): (2.59 ± 0.73) × 10^−4 M
